Source: US20140072613A1, “Compositions and Methods for Treating Cutaneous Scarring” (priority 2012, published 2014)

How the values were obtained:
Assay in all cases: cell-based or functional assay
Arg(h) (human) = Arg(h) (human) (UniProt P42684)
CHK2(I157T)(h) (human) = CHK2(I157T)(h) (human) (UniProt O96017)
CaMKIV(h) (human) = CaMKIV(h) (human) (UniProt Q16566)
EphA7(h) (human) = EphA7(h) (human) (UniProt Q15375)
Flt4(h) (human) = Flt4(h) (human) (UniProt P35916)
GCK(h) (human) = biological target: T1, GCK(h) (human) (UniProt Q12851)
T1 sequence (looked up): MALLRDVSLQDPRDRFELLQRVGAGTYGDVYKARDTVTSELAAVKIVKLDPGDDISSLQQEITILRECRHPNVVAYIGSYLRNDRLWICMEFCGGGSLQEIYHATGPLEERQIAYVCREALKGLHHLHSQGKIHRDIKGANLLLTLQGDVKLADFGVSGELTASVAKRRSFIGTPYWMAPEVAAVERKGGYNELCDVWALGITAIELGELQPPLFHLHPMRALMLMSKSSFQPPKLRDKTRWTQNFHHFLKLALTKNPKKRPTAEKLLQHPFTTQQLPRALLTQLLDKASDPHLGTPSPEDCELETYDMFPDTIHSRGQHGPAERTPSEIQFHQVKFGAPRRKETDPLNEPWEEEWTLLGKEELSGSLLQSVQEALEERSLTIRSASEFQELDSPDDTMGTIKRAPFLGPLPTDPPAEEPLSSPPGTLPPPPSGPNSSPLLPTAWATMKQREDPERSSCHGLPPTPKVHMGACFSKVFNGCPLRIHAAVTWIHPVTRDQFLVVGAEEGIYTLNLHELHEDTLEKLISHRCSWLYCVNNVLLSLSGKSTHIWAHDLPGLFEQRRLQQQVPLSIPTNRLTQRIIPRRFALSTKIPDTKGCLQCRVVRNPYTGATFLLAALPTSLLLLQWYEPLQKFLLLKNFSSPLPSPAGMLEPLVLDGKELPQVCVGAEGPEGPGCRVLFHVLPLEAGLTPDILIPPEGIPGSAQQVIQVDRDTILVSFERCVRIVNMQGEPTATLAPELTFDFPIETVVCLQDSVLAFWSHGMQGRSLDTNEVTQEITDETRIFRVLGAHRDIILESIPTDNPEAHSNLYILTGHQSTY

GRK7(h) (human) = biological target: T2, GRK7(h) (human) (UniProt Q8WTQ7)
T2 sequence (looked up): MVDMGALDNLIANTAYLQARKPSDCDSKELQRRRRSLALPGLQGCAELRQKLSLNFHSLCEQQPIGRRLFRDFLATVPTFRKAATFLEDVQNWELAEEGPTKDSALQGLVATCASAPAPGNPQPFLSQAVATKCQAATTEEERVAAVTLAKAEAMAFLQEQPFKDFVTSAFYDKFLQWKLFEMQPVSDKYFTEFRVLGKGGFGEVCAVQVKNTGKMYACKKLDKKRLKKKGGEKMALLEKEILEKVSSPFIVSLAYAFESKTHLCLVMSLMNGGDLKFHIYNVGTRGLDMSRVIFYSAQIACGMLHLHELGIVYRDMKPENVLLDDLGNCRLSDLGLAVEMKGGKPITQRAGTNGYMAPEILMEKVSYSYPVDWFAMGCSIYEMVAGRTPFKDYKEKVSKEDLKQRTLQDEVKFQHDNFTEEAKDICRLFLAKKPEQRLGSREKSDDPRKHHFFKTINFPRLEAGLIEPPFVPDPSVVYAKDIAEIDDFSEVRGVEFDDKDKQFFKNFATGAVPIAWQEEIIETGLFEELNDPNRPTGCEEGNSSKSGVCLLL

MRCKα(h) (human) = MRCKα(h) (human) (UniProt Q5VT25)
Sequence of MRCKα(h) (human) (Q5VT25 1-473 limits assumed): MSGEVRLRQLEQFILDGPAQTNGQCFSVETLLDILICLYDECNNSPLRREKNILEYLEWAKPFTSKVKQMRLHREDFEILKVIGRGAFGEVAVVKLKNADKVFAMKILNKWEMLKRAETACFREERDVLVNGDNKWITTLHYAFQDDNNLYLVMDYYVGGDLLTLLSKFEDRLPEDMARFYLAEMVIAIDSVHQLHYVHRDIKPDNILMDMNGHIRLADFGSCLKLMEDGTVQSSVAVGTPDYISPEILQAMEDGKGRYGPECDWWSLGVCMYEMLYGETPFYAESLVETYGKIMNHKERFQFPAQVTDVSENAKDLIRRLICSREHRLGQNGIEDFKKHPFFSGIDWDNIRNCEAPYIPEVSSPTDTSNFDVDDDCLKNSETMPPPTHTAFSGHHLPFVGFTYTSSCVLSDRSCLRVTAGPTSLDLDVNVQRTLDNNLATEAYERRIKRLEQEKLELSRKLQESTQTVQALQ

PAK4(h) (human) = PAK4(h) (human) (UniProt O96013)
Sequence of PAK4(h) (human) (O96013 whole entry): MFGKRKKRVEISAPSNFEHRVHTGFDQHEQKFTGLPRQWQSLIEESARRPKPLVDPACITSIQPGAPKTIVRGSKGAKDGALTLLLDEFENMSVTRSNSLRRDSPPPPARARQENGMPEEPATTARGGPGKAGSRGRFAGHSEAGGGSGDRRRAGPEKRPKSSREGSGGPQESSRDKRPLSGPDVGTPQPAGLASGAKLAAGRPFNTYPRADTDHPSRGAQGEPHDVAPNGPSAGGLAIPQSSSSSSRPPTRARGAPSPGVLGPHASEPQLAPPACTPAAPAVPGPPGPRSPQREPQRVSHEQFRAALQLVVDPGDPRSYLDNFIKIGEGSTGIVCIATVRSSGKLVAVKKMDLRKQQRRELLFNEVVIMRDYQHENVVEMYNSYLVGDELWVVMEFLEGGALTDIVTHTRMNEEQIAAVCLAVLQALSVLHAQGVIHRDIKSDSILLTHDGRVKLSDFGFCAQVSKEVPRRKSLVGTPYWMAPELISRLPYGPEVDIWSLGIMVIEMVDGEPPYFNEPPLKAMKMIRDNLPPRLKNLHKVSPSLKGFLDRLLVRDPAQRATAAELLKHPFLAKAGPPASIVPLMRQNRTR

Plk3(h) (human) = Plk3(h) (human) (UniProt Q9H4B4)
Sequence of Plk3(h) (human) (Q9H4B4 58-340 limits assumed): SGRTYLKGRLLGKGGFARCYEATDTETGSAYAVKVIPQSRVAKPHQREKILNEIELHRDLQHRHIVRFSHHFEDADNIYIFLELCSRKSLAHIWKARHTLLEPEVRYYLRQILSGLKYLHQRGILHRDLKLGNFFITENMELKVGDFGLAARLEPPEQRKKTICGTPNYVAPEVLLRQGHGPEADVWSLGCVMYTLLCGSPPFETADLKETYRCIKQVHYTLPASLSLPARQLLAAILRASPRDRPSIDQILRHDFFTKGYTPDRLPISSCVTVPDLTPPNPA

Ret(V804L)(h) (human) = biological target: T3, Ret(V804L)(h) (human) (UniProt P07949)
T3 sequence (looked up): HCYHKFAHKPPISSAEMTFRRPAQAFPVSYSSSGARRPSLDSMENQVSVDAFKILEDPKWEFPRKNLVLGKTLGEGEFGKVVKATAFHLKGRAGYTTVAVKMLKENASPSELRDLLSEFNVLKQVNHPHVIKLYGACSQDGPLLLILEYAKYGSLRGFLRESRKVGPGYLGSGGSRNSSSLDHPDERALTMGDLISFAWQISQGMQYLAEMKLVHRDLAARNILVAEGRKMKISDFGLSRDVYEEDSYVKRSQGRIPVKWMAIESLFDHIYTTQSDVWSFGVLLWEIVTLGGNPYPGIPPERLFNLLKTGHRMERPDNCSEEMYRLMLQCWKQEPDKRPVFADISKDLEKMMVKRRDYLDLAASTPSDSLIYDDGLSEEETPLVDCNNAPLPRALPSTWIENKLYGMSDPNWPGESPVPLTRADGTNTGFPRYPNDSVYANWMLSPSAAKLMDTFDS

SGK(h) (human) = SGK(h) (human) (UniProt O00141)
Sequence of SGK(h) (human) (O00141 60-431 limits assumed): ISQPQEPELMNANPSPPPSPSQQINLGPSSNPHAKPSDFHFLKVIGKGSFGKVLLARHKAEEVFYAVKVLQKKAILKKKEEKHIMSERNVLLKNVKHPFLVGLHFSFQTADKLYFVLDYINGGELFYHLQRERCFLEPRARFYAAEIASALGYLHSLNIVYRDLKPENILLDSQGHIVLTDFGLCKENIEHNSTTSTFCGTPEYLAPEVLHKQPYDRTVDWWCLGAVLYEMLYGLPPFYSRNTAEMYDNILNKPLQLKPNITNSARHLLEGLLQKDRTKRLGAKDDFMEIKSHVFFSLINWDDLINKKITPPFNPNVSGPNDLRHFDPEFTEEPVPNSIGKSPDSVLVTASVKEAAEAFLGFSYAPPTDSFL

TBK1(h) (human) = biological target: T4, TBK1(h) (human) (UniProt Q9UHD2)
T4 sequence (looked up): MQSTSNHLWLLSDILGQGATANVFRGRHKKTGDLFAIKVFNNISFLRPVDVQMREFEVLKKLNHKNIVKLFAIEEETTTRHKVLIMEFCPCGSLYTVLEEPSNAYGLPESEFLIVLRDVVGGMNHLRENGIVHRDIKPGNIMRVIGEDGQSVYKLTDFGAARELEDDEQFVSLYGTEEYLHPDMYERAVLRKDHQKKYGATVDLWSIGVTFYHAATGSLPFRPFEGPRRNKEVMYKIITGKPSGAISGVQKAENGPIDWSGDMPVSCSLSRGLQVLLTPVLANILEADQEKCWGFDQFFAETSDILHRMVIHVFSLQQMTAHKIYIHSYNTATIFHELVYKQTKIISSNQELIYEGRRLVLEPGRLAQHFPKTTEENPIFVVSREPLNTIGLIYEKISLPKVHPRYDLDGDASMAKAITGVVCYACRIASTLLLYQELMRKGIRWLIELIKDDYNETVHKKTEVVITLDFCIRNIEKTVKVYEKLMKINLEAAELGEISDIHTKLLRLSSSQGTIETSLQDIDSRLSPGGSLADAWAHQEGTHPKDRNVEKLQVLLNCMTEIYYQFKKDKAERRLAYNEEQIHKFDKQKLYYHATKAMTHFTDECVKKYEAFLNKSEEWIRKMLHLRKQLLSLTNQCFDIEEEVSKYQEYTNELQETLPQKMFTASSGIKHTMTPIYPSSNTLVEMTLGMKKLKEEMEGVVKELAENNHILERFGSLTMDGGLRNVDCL

Sequence of CaMKIV(h) (human) (Q16566 whole entry): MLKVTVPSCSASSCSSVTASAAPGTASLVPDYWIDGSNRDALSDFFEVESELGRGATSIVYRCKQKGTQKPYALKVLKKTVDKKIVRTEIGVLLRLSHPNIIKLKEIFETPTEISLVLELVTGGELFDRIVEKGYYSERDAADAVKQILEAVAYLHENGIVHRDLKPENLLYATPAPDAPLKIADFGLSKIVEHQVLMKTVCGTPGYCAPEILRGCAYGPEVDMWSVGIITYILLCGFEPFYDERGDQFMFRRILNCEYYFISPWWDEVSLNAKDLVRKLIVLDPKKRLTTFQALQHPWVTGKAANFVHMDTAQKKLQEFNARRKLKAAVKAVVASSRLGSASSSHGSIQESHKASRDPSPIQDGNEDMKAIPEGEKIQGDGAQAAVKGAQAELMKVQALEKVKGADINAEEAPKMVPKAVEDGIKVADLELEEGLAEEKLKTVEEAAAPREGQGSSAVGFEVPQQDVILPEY
Sequence of EphA7(h) (human) (Q15375 577-998 limits assumed): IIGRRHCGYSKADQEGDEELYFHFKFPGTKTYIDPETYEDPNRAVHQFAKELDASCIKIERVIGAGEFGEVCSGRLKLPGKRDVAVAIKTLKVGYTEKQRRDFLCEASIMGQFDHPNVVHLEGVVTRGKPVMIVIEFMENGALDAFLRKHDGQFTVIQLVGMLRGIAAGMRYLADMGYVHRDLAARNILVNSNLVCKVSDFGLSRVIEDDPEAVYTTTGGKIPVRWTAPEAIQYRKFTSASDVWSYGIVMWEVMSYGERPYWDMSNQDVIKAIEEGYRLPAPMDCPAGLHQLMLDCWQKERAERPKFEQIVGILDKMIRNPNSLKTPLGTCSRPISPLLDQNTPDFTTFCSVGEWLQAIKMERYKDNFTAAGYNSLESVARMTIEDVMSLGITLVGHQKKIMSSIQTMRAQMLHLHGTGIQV
Sequence of CHK2(I157T)(h) (human) (O96017 5-543 I157T limits assumed): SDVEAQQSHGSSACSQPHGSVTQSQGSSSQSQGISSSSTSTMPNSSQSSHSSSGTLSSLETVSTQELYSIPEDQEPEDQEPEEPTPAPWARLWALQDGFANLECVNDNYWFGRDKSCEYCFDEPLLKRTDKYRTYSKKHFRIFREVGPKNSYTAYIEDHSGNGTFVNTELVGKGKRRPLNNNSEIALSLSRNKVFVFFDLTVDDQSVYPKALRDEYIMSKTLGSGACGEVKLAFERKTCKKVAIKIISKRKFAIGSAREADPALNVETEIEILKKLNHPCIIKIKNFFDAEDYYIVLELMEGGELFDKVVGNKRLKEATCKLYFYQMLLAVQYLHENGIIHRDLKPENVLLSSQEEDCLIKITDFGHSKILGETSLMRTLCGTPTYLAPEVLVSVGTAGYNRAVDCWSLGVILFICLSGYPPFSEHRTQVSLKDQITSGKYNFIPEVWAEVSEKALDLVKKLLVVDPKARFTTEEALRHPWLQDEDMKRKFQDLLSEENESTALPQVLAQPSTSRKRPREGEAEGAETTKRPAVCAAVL
Sequence of Arg(h) (human) (P42684 38-1182 limits assumed): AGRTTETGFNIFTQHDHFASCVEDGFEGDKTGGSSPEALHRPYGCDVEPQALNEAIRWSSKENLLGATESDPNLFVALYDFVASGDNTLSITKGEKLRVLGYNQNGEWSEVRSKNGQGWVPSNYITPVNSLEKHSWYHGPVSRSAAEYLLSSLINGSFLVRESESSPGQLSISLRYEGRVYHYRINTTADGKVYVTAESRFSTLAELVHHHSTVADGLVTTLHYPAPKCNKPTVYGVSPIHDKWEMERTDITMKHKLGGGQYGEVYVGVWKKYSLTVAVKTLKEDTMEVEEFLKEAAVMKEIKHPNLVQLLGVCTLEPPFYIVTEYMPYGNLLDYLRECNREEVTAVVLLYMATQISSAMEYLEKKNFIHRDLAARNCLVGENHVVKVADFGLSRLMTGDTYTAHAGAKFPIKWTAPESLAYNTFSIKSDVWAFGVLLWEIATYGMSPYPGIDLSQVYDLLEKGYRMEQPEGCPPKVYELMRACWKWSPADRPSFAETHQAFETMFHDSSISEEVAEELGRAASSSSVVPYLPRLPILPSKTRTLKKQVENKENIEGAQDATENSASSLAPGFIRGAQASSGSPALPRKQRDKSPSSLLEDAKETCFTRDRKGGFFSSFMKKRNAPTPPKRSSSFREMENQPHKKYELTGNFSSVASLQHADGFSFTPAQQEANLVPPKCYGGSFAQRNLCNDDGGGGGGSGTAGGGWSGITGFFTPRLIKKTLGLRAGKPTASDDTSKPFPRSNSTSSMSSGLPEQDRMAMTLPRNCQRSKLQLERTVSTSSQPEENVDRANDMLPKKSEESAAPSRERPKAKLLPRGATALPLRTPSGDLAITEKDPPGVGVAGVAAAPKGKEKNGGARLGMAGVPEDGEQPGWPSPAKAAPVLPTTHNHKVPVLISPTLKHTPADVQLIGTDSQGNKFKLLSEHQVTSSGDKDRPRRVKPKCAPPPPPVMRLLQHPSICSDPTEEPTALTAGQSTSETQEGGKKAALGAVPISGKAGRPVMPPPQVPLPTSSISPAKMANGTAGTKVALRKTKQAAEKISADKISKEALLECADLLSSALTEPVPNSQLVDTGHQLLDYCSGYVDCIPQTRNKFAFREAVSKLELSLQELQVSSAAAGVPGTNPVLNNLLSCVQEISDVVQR
Sequence of Flt4(h) (human) (P35916 800-1363 limits assumed): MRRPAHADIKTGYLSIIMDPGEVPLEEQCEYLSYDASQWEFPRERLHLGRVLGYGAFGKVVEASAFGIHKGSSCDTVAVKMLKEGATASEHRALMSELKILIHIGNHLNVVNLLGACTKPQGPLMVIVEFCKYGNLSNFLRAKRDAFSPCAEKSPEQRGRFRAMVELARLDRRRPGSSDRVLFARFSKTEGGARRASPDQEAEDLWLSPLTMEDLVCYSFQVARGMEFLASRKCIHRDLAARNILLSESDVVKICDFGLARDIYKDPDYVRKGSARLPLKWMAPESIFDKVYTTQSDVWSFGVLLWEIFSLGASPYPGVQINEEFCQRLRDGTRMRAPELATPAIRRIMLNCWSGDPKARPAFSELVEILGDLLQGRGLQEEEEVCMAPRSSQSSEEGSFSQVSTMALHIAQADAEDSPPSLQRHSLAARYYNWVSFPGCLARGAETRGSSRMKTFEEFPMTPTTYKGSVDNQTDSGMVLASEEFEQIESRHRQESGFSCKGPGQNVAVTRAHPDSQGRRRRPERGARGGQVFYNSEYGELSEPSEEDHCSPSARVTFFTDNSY

% activity, 100 µM (Arg(h) (human)): 22%
% activity, 100 µM (CHK2(I157T)(h) (human)): 3%
% activity, 100 µM (CaMKIV(h) (human)): -1%
% activity, 100 µM (EphA7(h) (human)): 189%
% activity, 100 µM (Flt4(h) (human)): 73%
% activity, 100 µM (GCK(h) (human)): 30%
% activity, 100 µM (GRK7(h) (human)): 93%
% activity, 100 µM (MRCKα(h) (human)): 5%
% activity, 100 µM (PAK4(h) (human)): 86%
% activity, 100 µM (Plk3(h) (human)): 122%
% activity, 100 µM (Ret(V804L)(h) (human)): 20%
% activity, 100 µM (SGK(h) (human)): 2%
% activity, 100 µM (TBK1(h) (human)): 16%
Substance: MMI-0500 (peptide)
